{"source": "patent US20110105397A1", "about": "“METHOD FOR TREATING HEART FAILURE WITH STRESSCOPIN-LIKE PEPTIDES” (priority 2009, published 2011)", "biological_target": "T1, human corticotrophin releasing hormone receptor type 2 (CRHR2) (human, UniProt Q13324 1-411)", "T1 sequence (looked up)": "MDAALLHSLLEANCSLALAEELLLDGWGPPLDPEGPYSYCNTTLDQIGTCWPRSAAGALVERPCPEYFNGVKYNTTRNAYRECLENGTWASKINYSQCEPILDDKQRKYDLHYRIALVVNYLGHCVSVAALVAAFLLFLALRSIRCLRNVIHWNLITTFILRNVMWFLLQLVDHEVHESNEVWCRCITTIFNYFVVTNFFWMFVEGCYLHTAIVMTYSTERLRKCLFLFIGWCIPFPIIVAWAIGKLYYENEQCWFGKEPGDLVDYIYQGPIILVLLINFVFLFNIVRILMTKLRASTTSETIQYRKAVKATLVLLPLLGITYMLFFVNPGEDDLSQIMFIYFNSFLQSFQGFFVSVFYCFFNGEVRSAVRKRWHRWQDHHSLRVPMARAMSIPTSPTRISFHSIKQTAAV", "assay": "cell-based or functional assay", "note": "Where no end group is shown, it is not given here. The star is where a group is joined. Succinimide(1-Et,3-yl) = CCN1C(=O)CC(*)C1=O", "data": [{"binder": "TKFTLSLDVPTNIMNLLFNIAKAKNLRAQAAANAC(Succinimide(1-Et,3-yl))LMAQI-NH2 (N-terminus assumed; SMILES CC[C@H](C)[C@H](NC(=O)[C@H](CCC(N)=O)NC(=O)[C@H](C)NC(=O)[C@H](CCSC)NC(=O)[C@H](CC(C)C)NC(=O)[C@H](CSC1CC(=O)N(CC)C1=O)NC(=O)[C@H](C)NC(=O)[C@H](CC(N)=O)NC(=O)[C@H](C)NC(=O)[C@H](C)NC(=O)[C@H](C)NC(=O)[C@H](CCC(N)=O)NC(=O)[C@H](C)NC(=O)[C@H](CCCNC(=N)N)NC(=O)[C@H](CC(C)C)NC(=O)[C@H](CC(N)=O)NC(=O)[C@H](CCCCN)NC(=O)[C@H](C)NC(=O)[C@H](CCCCN)NC(=O)[C@H](C)NC(=O)[C@@H](NC(=O)[C@H](CC(N)=O)NC(=O)[C@H](Cc1ccccc1)NC(=O)[C@H](CC(C)C)NC(=O)[C@H](CC(C)C)NC(=O)[C@H](CC(N)=O)NC(=O)[C@H](CCSC)NC(=O)[C@@H](NC(=O)[C@H](CC(N)=O)NC(=O)[C@@H](NC(=O)[C@@H]1CCCN1C(=O)[C@@H](NC(=O)[C@H](CC(=O)O)NC(=O)[C@H](CC(C)C)NC(=O)[C@H](CO)NC(=O)[C@H](CC(C)C)NC(=O)[C@@H](NC(=O)[C@H](Cc1ccccc1)NC(=O)[C@H](CCCCN)NC(=O)[C@@H](N)[C@@H](C)O)[C@@H](C)O)C(C)C)[C@@H](C)O)[C@@H](C)CC)[C@@H](C)CC)C(N)=O)", "note": "[Cys-variant of stresscopin peptide with N-Ethylsuccinimide (NES) reactive group SEQ ID NO: 43]", "values": [{"measurement": "Log DR", "value": -0.32, "unit": "log10"}, {"measurement": "pA50", "value": "9.79 -log10(M)"}]}, {"binder": "TKFTLSLDVPTNIMNLLFNIAKAKNLRAQAAAC(Succinimide(1-Et,3-yl))AHLMAQI-NH2 (N-terminus assumed; SMILES CC[C@H](C)[C@H](NC(=O)[C@H](CCC(N)=O)NC(=O)[C@H](C)NC(=O)[C@H](CCSC)NC(=O)[C@H](CC(C)C)NC(=O)[C@H](Cc1c[nH]cn1)NC(=O)[C@H](C)NC(=O)[C@H](CSC1CC(=O)N(CC)C1=O)NC(=O)[C@H](C)NC(=O)[C@H](C)NC(=O)[C@H](C)NC(=O)[C@H](CCC(N)=O)NC(=O)[C@H](C)NC(=O)[C@H](CCCNC(=N)N)NC(=O)[C@H](CC(C)C)NC(=O)[C@H](CC(N)=O)NC(=O)[C@H](CCCCN)NC(=O)[C@H](C)NC(=O)[C@H](CCCCN)NC(=O)[C@H](C)NC(=O)[C@@H](NC(=O)[C@H](CC(N)=O)NC(=O)[C@H](Cc1ccccc1)NC(=O)[C@H](CC(C)C)NC(=O)[C@H](CC(C)C)NC(=O)[C@H](CC(N)=O)NC(=O)[C@H](CCSC)NC(=O)[C@@H](NC(=O)[C@H](CC(N)=O)NC(=O)[C@@H](NC(=O)[C@@H]1CCCN1C(=O)[C@@H](NC(=O)[C@H](CC(=O)O)NC(=O)[C@H](CC(C)C)NC(=O)[C@H](CO)NC(=O)[C@H](CC(C)C)NC(=O)[C@@H](NC(=O)[C@H](Cc1ccccc1)NC(=O)[C@H](CCCCN)NC(=O)[C@@H](N)[C@@H](C)O)[C@@H](C)O)C(C)C)[C@@H](C)O)[C@@H](C)CC)[C@@H](C)CC)C(N)=O)", "note": "[Cys-variant of stresscopin peptide with N-Ethylsuccinimide (NES) reactive group SEQ ID NO: 44]", "values": [{"measurement": "Log DR", "value": "~1.97", "unit": "log10"}, {"measurement": "pA50", "value": "~7.5 -log10(M)"}]}, {"binder": "TKFTLSLDVPTNIMNLLFNIAKAKNLRAQAAANAHLMAQC(Succinimide(1-Et,3-yl))-NH2 (N-terminus assumed; SMILES CC[C@H](C)[C@H](NC(=O)[C@H](CC(N)=O)NC(=O)[C@H](Cc1ccccc1)NC(=O)[C@H](CC(C)C)NC(=O)[C@H](CC(C)C)NC(=O)[C@H](CC(N)=O)NC(=O)[C@H](CCSC)NC(=O)[C@@H](NC(=O)[C@H](CC(N)=O)NC(=O)[C@@H](NC(=O)[C@@H]1CCCN1C(=O)[C@@H](NC(=O)[C@H](CC(=O)O)NC(=O)[C@H](CC(C)C)NC(=O)[C@H](CO)NC(=O)[C@H](CC(C)C)NC(=O)[C@@H](NC(=O)[C@H](Cc1ccccc1)NC(=O)[C@H](CCCCN)NC(=O)[C@@H](N)[C@@H](C)O)[C@@H](C)O)C(C)C)[C@@H](C)O)[C@@H](C)CC)C(=O)N[C@@H](C)C(=O)N[C@@H](CCCCN)C(=O)N[C@@H](C)C(=O)N[C@@H](CCCCN)C(=O)N[C@@H](CC(N)=O)C(=O)N[C@@H](CC(C)C)C(=O)N[C@@H](CCCNC(=N)N)C(=O)N[C@@H](C)C(=O)N[C@@H](CCC(N)=O)C(=O)N[C@@H](C)C(=O)N[C@@H](C)C(=O)N[C@@H](C)C(=O)N[C@@H](CC(N)=O)C(=O)N[C@@H](C)C(=O)N[C@@H](Cc1c[nH]cn1)C(=O)N[C@@H](CC(C)C)C(=O)N[C@@H](CCSC)C(=O)N[C@@H](C)C(=O)N[C@@H](CCC(N)=O)C(=O)N[C@@H](CSC1CC(=O)N(CC)C1=O)C(N)=O)", "note": "[Cys-variant of stresscopin peptide with N-Ethylsuccinimide (NES) reactive group SEQ ID NO: 42]", "values": [{"measurement": "Log DR", "value": "~1.72", "unit": "log10"}, {"measurement": "pA50", "value": "~7.75 -log10(M)"}]}, {"binder": "TKFTLSLDVPTNIMNLLFNIAKAKNLRAQAAC(Succinimide(1-Et,3-yl))NAHLMAQI-NH2 (N-terminus assumed; SMILES CC[C@H](C)[C@H](NC(=O)[C@H](CCC(N)=O)NC(=O)[C@H](C)NC(=O)[C@H](CCSC)NC(=O)[C@H](CC(C)C)NC(=O)[C@H](Cc1c[nH]cn1)NC(=O)[C@H](C)NC(=O)[C@H](CC(N)=O)NC(=O)[C@H](CSC1CC(=O)N(CC)C1=O)NC(=O)[C@H](C)NC(=O)[C@H](C)NC(=O)[C@H](CCC(N)=O)NC(=O)[C@H](C)NC(=O)[C@H](CCCNC(=N)N)NC(=O)[C@H](CC(C)C)NC(=O)[C@H](CC(N)=O)NC(=O)[C@H](CCCCN)NC(=O)[C@H](C)NC(=O)[C@H](CCCCN)NC(=O)[C@H](C)NC(=O)[C@@H](NC(=O)[C@H](CC(N)=O)NC(=O)[C@H](Cc1ccccc1)NC(=O)[C@H](CC(C)C)NC(=O)[C@H](CC(C)C)NC(=O)[C@H](CC(N)=O)NC(=O)[C@H](CCSC)NC(=O)[C@@H](NC(=O)[C@H](CC(N)=O)NC(=O)[C@@H](NC(=O)[C@@H]1CCCN1C(=O)[C@@H](NC(=O)[C@H](CC(=O)O)NC(=O)[C@H](CC(C)C)NC(=O)[C@H](CO)NC(=O)[C@H](CC(C)C)NC(=O)[C@@H](NC(=O)[C@H](Cc1ccccc1)NC(=O)[C@H](CCCCN)NC(=O)[C@@H](N)[C@@H](C)O)[C@@H](C)O)C(C)C)[C@@H](C)O)[C@@H](C)CC)[C@@H](C)CC)C(N)=O)", "note": "[Cys-variant of stresscopin peptide with N-Ethylsuccinimide (NES) reactive group SEQ ID NO: 45]", "values": [{"measurement": "Log DR", "value": -0.01, "unit": "log10"}, {"measurement": "pA50", "value": "9.48 -log10(M)"}]}, {"binder": "TKFTLSLDVPTNIMNLLFNIAKAKNLRAQAC(Succinimide(1-Et,3-yl))ANAHLMAQI-NH2 (N-terminus assumed; SMILES CC[C@H](C)[C@H](NC(=O)[C@H](CCC(N)=O)NC(=O)[C@H](C)NC(=O)[C@H](CCSC)NC(=O)[C@H](CC(C)C)NC(=O)[C@H](Cc1c[nH]cn1)NC(=O)[C@H](C)NC(=O)[C@H](CC(N)=O)NC(=O)[C@H](C)NC(=O)[C@H](CSC1CC(=O)N(CC)C1=O)NC(=O)[C@H](C)NC(=O)[C@H](CCC(N)=O)NC(=O)[C@H](C)NC(=O)[C@H](CCCNC(=N)N)NC(=O)[C@H](CC(C)C)NC(=O)[C@H](CC(N)=O)NC(=O)[C@H](CCCCN)NC(=O)[C@H](C)NC(=O)[C@H](CCCCN)NC(=O)[C@H](C)NC(=O)[C@@H](NC(=O)[C@H](CC(N)=O)NC(=O)[C@H](Cc1ccccc1)NC(=O)[C@H](CC(C)C)NC(=O)[C@H](CC(C)C)NC(=O)[C@H](CC(N)=O)NC(=O)[C@H](CCSC)NC(=O)[C@@H](NC(=O)[C@H](CC(N)=O)NC(=O)[C@@H](NC(=O)[C@@H]1CCCN1C(=O)[C@@H](NC(=O)[C@H](CC(=O)O)NC(=O)[C@H](CC(C)C)NC(=O)[C@H](CO)NC(=O)[C@H](CC(C)C)NC(=O)[C@@H](NC(=O)[C@H](Cc1ccccc1)NC(=O)[C@H](CCCCN)NC(=O)[C@@H](N)[C@@H](C)O)[C@@H](C)O)C(C)C)[C@@H](C)O)[C@@H](C)CC)[C@@H](C)CC)C(N)=O)", "note": "[Cys-variant of stresscopin peptide with N-Ethylsuccinimide (NES) reactive group SEQ ID NO: 46]", "values": [{"measurement": "Log DR", "value": 0.04, "unit": "log10"}, {"measurement": "pA50", "value": "9.43 -log10(M)"}]}, {"binder": "TKFTLSLDVPTNIMNLLFNIAKAKNLRCQAAANAHLMAQI (NES-PEG MW2000 on Cys 28; C-terminal amide (-NH2))", "note": "[Pegylated Cys-variant stresscopin-like peptide, NES-PEG MW2000, SEQ ID NO: 95]", "values": [{"measurement": "Log DR", "value": 0.43, "unit": "log10"}, {"measurement": "pA50", "value": "9.31 -log10(M)"}]}, {"binder": "TKFTLSLDVPTNIMNLLFNIAKAKNLRCQAAANAHLMAQI (NES-PEG MW30000 on Cys 28; C-terminal amide (-NH2))", "note": "[Pegylated Cys-variant stresscopin-like peptide, NES-PEG MW30000, SEQ ID NO: 99]", "values": [{"measurement": "Log DR", "value": 0.8, "unit": "log10"}, {"measurement": "pA50", "value": "8.94 -log10(M)"}]}, {"binder": "TKFTLSLDVPTNIMNLLFNIAKAKNLRCQAAANAHLMAQI (NES-PEG MW5000 on Cys 28; C-terminal amide (-NH2))", "note": "[Pegylated Cys-variant stresscopin-like peptide, NES-PEG MW5000, SEQ ID NO: 96]", "values": [{"measurement": "Log DR", "value": 1, "unit": "log10"}, {"measurement": "pA50", "value": "8.74 -log10(M)"}]}, {"binder": "TKFTLSLDVPTNIMNLLFNIAKAKNLRCQAAANAHLMAQI (NES-PEG MW40000 on Cys 28; C-terminal amide (-NH2))", "note": "[Pegylated Cys-variant stresscopin-like peptide, NES-PEG MW40000, SEQ ID NO: 100]", "values": [{"measurement": "Log DR", "value": 1.1, "unit": "log10"}, {"measurement": "pA50", "value": "8.64 -log10(M)"}]}, {"binder": "TKFTLSLDVPTNIMNLLFNIAKAKNLRCQAAANAHLMAQI (NES-PEG MW12000 on Cys 28; C-terminal amide (-NH2))", "note": "[Pegylated Cys-variant stresscopin-like peptide, NES-PEG MW12000, SEQ ID NO: 97]", "values": [{"measurement": "Log DR", "value": "~0.74", "unit": "log10"}, {"measurement": "pA50", "value": "~9 -log10(M)"}]}, {"binder": "TKFTLSLDVPTNIMNLLFNIAKAKNLRCQAAANAHLMAQI-NH2 (not fully specified (residue 28); also: PEG with maleimide at both ends, peptide chains per PEG not given here)", "note": "[Pegylated Cys-variant stresscopin-like peptide, NES-PEG MW20000 & DOUBLE-ENDED, SEQ ID NO: 98]", "values": [{"measurement": "Log DR", "value": 0.18, "unit": "log10"}, {"measurement": "pA50", "value": "9.5 -log10(M)"}]}]}
